Measurements published in article PMC3240717.

Biological target: CD44-AFAP-110 complex (human (endogenous in MDA-MB-231)) (UniProt P16070)
Assay: radioligand binding

UniProt P16070, sequence (P16070 21-742, chain 1 of 2): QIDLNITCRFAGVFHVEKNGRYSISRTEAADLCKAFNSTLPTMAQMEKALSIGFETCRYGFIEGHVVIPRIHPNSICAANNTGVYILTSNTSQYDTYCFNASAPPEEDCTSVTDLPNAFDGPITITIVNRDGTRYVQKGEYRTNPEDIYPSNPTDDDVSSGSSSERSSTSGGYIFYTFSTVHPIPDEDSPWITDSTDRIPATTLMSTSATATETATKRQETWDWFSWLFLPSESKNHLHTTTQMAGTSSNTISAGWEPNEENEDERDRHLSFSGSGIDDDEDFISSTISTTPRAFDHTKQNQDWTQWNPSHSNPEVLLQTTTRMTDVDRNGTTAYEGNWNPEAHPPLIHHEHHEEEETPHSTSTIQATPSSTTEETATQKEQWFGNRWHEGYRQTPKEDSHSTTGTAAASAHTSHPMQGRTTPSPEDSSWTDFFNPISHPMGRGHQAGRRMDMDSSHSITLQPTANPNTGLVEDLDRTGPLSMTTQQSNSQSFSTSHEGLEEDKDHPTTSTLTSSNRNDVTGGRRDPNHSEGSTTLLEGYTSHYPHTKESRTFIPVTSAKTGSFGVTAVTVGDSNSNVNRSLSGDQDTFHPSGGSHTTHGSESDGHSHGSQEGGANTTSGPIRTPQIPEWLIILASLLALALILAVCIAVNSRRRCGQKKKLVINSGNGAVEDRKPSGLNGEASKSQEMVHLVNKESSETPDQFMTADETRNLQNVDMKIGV
UniProt P16070, sequence (Q8N556 whole entry, chain 2 of 2, further chain): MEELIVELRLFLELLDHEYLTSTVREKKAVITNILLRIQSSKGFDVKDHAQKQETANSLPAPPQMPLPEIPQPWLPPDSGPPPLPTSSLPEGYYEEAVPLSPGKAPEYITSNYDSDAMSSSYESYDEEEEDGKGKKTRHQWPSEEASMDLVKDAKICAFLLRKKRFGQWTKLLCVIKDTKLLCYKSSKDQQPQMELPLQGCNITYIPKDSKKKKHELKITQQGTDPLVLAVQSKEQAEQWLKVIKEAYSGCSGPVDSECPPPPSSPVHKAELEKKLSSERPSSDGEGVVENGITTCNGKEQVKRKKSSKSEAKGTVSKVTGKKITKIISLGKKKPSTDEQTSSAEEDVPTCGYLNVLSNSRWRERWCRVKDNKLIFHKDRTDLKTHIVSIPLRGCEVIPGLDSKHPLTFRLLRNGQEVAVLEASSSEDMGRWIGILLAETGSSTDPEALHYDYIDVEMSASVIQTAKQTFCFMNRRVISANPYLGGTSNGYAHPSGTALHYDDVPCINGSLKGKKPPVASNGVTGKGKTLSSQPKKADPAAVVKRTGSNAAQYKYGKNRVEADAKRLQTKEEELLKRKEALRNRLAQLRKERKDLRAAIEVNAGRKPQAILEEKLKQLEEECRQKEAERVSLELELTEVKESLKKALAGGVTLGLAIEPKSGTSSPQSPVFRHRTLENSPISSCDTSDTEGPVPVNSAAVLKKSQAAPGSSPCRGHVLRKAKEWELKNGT

## filamentous actin (F-actin) (natural protein)
  125I-F-actin bound, cpm (cells: HA fragment (2-3 disaccharide) treatment): 11700 cpm
  125I-F-actin bound, cpm (cells: HMW-HA treatment): 13800 cpm
  125I-F-actin bound, cpm (cells: LMW-HA treatment): 38400 cpm
  125I-F-actin bound, cpm (cells: anti-CD44 IgG + LMW-HA treatment): 12500 cpm
  125I-F-actin bound, cpm (cells: no treatment, control): 12700 cpm
  125I-F-actin bound, cpm (cells: normal IgG + LMW-HA treatment): 38000 cpm
  125I-F-actin bound, cpm (cells: normal IgG + no HA treatment): 12500 cpm
  125I-F-actin bound, cpm (cells: scrambled siRNA, HMW-HA treatment): 11500 cpm
  125I-F-actin bound, cpm (cells: scrambled siRNA, LMW-HA treatment): 31800 cpm
  125I-F-actin bound, cpm (cells: scrambled siRNA, no treatment, control): 11000 cpm
